Test results taken from article PMC4933246, “Alanine Expansions Associated with Congenital Central Hypoventilation Syndrome Impair PHOX2B Homeodomain-mediated Dimerization and Nuclear Import*”.

B1: ATTA 3-4 sites probe (dsDNA)
DNA 1: GGTGGTATTAAATTCTAATTAGAGATGCA
DNA 2: TGCATCTCTAATTAGAATTTAATACCACC
B2: PHOX2A promoter homeodomain binding site probe (dsDNA)
DNA 1: TCAGAGCGAATTGAATTAACTTCTTCACAC
DNA 2: GTGTGAAGAAGTTAATTCAATTCGCTCTGA
B3: ATTA 2 site probe (dsDNA)
DNA 1: TAGTGTGATTGAATTAAAGGGCA
DNA 2: TGCCCTTTAATTCAATCACACTA
B4: PRS1 (dsDNA)
DNA 1: ATGTGTCATTAGTGCCAATTAGAGG
DNA 2: CCTCTAATTGGCACTAATGACACAT

target: PHOX2B WT (HA-tagged) (human, UniProt Q99453 1-314); assay: EMSA; self-competition and anti-HA supershift; EMSA as previously described (refs 25, 28) with rabbit reticulocyte lysate proteins; buffer, salt, pH and temperature not given; conditions: protein: ivt; tags: N-terminal HA; label: radiolabeled
Sequence (Q99453 whole entry): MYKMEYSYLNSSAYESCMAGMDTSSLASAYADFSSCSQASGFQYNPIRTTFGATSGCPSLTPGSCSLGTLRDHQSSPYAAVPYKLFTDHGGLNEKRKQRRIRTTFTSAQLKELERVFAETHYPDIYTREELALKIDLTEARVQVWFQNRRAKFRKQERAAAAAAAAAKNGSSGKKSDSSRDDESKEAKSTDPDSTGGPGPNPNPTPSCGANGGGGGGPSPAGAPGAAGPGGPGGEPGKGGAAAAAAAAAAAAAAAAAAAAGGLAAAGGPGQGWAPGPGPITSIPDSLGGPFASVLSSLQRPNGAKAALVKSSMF

Binding result, binds:
B1
B2
B3
B4
